Substitutions are numbered along the chain they refer to.
B1: antibody 31F3 (human IgG) (antibody, V domains shown)
VH: QVQLEQSGAEVKRPGASVKVSCKASGYTFTGYYLHWVRQAPGQGLEWMGRINPGSGGTKYAQKFQGRVSMTRDTSISTAYMEVNRLRPDDTAVYYCARYQVYGERGRYMDVWGKGTTVTVSS
VL: QSALTQPASVSGSPGQSITISCTGTSSDVGTYDLVSWYQQHPGKAPKLIIYEDNKRPSGLSNRFSGSKSGNTASLTISGLQADDEADYYCCSYAAISTLIFGGGTKVTVL
B2: 31F3 Fab (Fab, V domains shown)
VH: B1 VH
VL: B1 VL
B3: antibody 30E1 (human IgG) (antibody, V domains shown)
VH: QVQLVQSGAEVKKPGASVKVSCKTSGYTFTDYYLHWVRQAPGQGLEWMGRINPNSGNTNYAQKFQGRVSVTRDTSISTAYMELSRLSSDDTAVYFCARVKIVVLRSTPTLYYFDYWGQGTLVTVSS
VL: B1 VL with L48V, I49M, D53G, N54S, L60V, D83E, A95G, I96T, I100V
B4: 30E1 Fab (Fab, V domains shown)
VH: B3 VH
VL: B1 VL with L48V, I49M, D53G, N54S, L60V, D83E, A95G, I96T, I100V

Columns and labels:
[1] = molecular target: recombinant in vitro phosphorylated full-length TDP-43 (TDP-43-MBP phosphorylated with casein kinase 1 delta) (human) (UniProt Q13148); assay: SPR Biacore 8K, 25 C, in vitro phosphorylated TDP-43 amine-coupled on CM5, IgG as analyte (avidity)
[2] = molecular target: recombinant in vitro phosphorylated full-length TDP-43 (TDP-43-MBP phosphorylated with casein kinase 1 delta) (human) (UniProt Q13148); assay: SPR Biacore 8K, 25 C, in vitro phosphorylated TDP-43 amine-coupled on CM5, Fab as analyte

Binder | Kd [1] [nM] | koff [1] [s⁻¹] | kon [1] [M⁻¹ s⁻¹] | Kd [2] [nM] | koff [2] [s⁻¹] | kon [2] [M⁻¹ s⁻¹]
B1 | 0.01 | 0.0003 | 2.5e+07 |  |  | 
B2 |  |  |  | 2.5 | 0.017 | 6.8e+06
B3 | 0.02 | 0.00061 | 3e+07 |  |  | 
B4 |  |  |  | 34 | 0.11 | 3.1e+06
